In US20110039779A1, “IGF-1R BINDING PROTEINS AND ANTAGONISTS” (priority 2007, published 2011):

Tests used:
[1] = target: IGF-1R on MCF-7 cells (MCF-7S8, MCF7) (human), P08069; test: cell-based or functional assay
[2] = target: IGF-1R on SW480 cells, P08069; test: cell-based or functional assay
Sequence of IGF-1R on SW480 cells, P08069 (P08069 31-1367 limits assumed): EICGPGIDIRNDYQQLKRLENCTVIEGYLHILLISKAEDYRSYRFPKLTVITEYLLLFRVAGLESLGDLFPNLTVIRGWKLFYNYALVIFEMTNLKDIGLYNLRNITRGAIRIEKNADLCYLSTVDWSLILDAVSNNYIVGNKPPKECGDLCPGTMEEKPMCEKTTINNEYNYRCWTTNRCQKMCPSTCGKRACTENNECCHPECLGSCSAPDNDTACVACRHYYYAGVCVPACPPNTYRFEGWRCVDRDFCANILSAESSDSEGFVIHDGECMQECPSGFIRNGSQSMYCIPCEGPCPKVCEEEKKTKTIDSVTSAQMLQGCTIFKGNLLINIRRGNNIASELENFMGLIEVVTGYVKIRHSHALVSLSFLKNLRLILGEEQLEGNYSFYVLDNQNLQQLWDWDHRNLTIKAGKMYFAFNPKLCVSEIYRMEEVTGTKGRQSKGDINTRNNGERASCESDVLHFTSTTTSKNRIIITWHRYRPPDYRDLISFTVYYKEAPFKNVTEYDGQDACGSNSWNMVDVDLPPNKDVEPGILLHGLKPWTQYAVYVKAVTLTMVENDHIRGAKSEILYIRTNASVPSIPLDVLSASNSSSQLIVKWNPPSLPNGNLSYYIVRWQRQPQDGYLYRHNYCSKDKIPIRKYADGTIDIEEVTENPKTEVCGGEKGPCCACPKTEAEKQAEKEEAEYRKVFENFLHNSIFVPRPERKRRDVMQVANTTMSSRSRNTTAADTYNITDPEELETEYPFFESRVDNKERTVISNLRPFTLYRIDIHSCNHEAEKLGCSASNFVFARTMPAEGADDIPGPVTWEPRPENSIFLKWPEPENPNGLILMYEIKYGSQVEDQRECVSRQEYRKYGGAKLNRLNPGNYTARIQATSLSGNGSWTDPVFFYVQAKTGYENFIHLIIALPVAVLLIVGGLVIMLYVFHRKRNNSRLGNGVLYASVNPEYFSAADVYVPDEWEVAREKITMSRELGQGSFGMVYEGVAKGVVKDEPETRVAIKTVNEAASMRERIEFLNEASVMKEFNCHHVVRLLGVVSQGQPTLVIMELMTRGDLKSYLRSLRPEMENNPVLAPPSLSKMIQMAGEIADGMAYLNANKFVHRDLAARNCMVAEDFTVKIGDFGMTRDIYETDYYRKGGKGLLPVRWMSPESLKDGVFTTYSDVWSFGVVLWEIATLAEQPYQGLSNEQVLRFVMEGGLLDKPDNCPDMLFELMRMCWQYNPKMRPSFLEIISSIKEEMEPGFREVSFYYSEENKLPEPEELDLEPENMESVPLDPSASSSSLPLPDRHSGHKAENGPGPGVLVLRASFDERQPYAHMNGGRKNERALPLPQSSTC

Sequence of IGF-1R on MCF-7 cells (MCF-7S8, MCF7) (human), P08069 (P08069 31-1367): as the sequence (P08069 31-1367 limits assumed) above

- Cell [1]: 1000 nM
- IC50, IGF-1 (10 nM)-induced proliferation of SW480 cells, exp. 13262-015 [2]: > 10 µM
- IC50, IGF-1 (10 nM)-induced proliferation of SW480 cells, exp. 13262-016 [2]: > 10 µM
Binder: SFYSCLESLVNGGAERSDGQWEGCR (modifications not checked) [F113]
